In this experiment the test system is human HL60 cells. The experiment can be described thus: SWATH-MS proteomics, differential protein representation, akirin2 KO vs WT HL60 cells. It is filed as cell-based. The settings on record: sheet "Under-represented in KO". In short, it runs like this: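 Read-out is label-free SWATH-MS protein area, globally normalized to total detected-protein area, with identifications held at 1% FDR against a library from information-dependent acquisition.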

Setting [1] is: KO vs WT, akirin2 KO vs WT HL60 cells.

B1: sp¦P27105¦STOM_HUMAN (protein, UniProt P27105 1-288, looked up)
Stomatin: MAEKRHTRDSEAQRLPDSFKDSPSKGLGPCGWILVAFSFLFTVITFPISIWMCIKIIKEYERAIIFRLGRILQGGAKGPGLFFILPCTDSFIKVDMRTISFDIPPQEILTKDSVTISVDGVVYYRVQNATLAVANITNADSATRLLAQTTLRNVLGTKNLSQILSDREEIAHNMQSTLDDATDAWGIKVERVEIKDVKLPVQLQRAMAAEAEASREARAKVIAAEGEMNASRALKEASMVITESPAALQLRYLQTLTTIAAEKNSTIVFPLPIDMLQGIIGAKHSHLG
Turning to B1, under “KO vs WT HL60 cells”, the “Fold Change” value was 0.5492 and the “Log (Fold Change)” value is listed as -0.2603.

B2: sp¦Q9H939¦PPIP2_HUMAN (protein, UniProt Q9H939 1-334, looked up)
Proline-serine-threonine …: MTRSLFKGNFWSADILSTIGYDNIIQHLNNGRKNCKEFEDFLKERAAIEERYGKDLLNLSRKKPCGQSEINTLKRALEVFKQQVDNVAQCHIQLAQSLREEARKMEEFREKQKLQRKKTELIMDAIHKQKSLQFKKTMDAKKNYEQKCRDKDEAEQAVSRSANLVNPKQQEKLFVKLATSKTAVEDSDKAYMLHIGTLDKVREEWQSEHIKACEAFEAQECERINFFRNALWLHVNQLSQQCVTSDEMYEQVRKSLEMCSIQRDIEYFVNQRKTGQIPPAPIMYENFYSSQKNAVPAGKATGPNLARRGPLPIPKSSPDDPNYSLVDDYSLLYQ
Take B2: under setting [1], the “Fold Change” value turned out to be 0.5689 and the “Log (Fold Change)” value was -0.2449.

B3: sp¦P51159¦RB27A_HUMAN (protein, UniProt P51159 2-221, looked up)
Ras-related protein Rab-27A: SDGDYDYLIKFLALGDSGVGKTSVLYQYTDGKFNSKFITTVGIDFREKRVVYRASGPDGATGRGQRIHLQLWDTAGQERFRSLTTAFFRDAMGFLLLFDLTNEQSFLNVRNWISQLQMHAYCENPDIVLCGNKSDLEDQRVVKEEEAIALAEKYGIPYFETSAANGTNISQAIEMLLDLIMKRMERCVDKSWIPEGVVRSNGHASTDQLSEEKEKGACGC
Turning to B3, where the note is “KO vs WT HL60 cells”, the “Fold Change” value is reported as 0.5507 and the “Log (Fold Change)” value was -0.2591.

B4: sp¦P10515¦ODP2_HUMAN (protein, UniProt P10515 87-647, looked up)
Dihydrolipoyllysine-residue …: SLPPHQKVPLPSLSPTMQAGTIARWEKKEGDKINEGDLIAEVETDKATVGFESLEECYMAKILVAEGTRDVPIGAIICITVGKPEDIEAFKNYTLDSSAAPTPQAAPAPTPAATASPPTPSAQAPGSSYPPHMQVLLPALSPTMTMGTVQRWEKKVGEKLSEGDLLAEIETDKATIGFEVQEEGYLAKILVPEGTRDVPLGTPLCIIVEKEADISAFADYRPTEVTDLKPQVPPPTPPPVAAVPPTPQPLAPTPSAPCPATPAGPKGRVFVSPLAKKLAVEKGIDLTQVKGTGPDGRITKKDIDSFVPSKVAPAPAAVVPPTGPGMAPVPTGVFTDIPISNIRRVIAQRLMQSKQTIPHYYLSIDVNMGEVLLVRKELNKILEGRSKISVNDFIIKASALACLKVPEANSSWMDTVIRQNHVVDVSVAVSTPAGLITPIVFNAHIKGVETIANDVVSLATKAREGKLQPHEFQGGTFTISNLGMFGIKNFSAIINPPQACILAIGASEDKLVPADNEKGFDVASMMSVTLSCDHRVVDGAVGAQWLAEFRKYLEKPITMLL
For the molecule B4, under setting [1], the “Fold Change” value was determined as 0.571 and the “Log (Fold Change)” value is -0.2434.

B5: sp¦Q9BVC6¦TM109_HUMAN (protein, UniProt Q9BVC6 34-243, looked up)
Voltage-gated monoatomic …: QSRRDFAPPGQQKREAPVDVLTQIGRSVRGTLDAWIGPETMHLVSESSSQVLWAISSAISVAFFALSGIAAQLLNALGLAGDYLAQGLKLSPGQVQTFLLWGAGALVVYWLLSLLLGLVLALLGRILWGLKLVIFLAGFVALMRSVPDPSTRALLLLALLILYALLSRLTGSRASGAQLEAKVRGLERQVEELRWRQRRAAKGARSVEEE
With B5, under setting [1], the “Fold Change” value is on record as 0.5517 and the “Log (Fold Change)” value is -0.2583.

B6: sp¦Q9H9B4¦SFXN1_HUMAN (protein, UniProt Q9H9B4 2-322, looked up)
Sideroflexin-1: SGELPPNINIKEPRWDQSTFIGRANHFFTVTDPRNILLTNEQLESARKIVHDYRQGIVPPGLTENELWRAKYIYDSAFHPDTGEKMILIGRMSAQVPMNMTITGCMMTFYRTTPAVLFWQWINQSFNAVVNYTNRSGDAPLTVNELGTAYVSATTGAVATALGLNALTKHVSPLIGRFVPFAAVAAANCINIPLMRQRELKVGIPVTDENGNRLGESANAAKQAITQVVVSRILMAAPGMAIPPFIMNTLEKKAFLKRFPWMSAPIQVGLVGFCLVFATPLCCALFPQKSSMSVTSLEAELQAKIQESHPELRRVYFNKGL
Consider B6, for which, under setting [1], the “Fold Change” value is on record as 0.5707 and the “Log (Fold Change)” value is reported as -0.2436.

B7: sp¦P21964¦COMT_HUMAN (protein, UniProt P21964 1-271, looked up)
Catechol O-methyltransferase: MPEAPPLLLAAVLLGLVLLVVLLLLLRHWGWGLCLIGWNEFILQPIHNLLMGDTKEQRILNHVLQHAEPGNAQSVLEAIDTYCEQKEWAMNVGDKKGKIVDAVIQEHQPSVLLELGAYCGYSAVRMARLLSPGARLITIEINPDCAAITQRMVDFAGVKDKVTLVVGASQDIIPQLKKKYDVDTLDMVFLDHWKDRYLPDTLLLEECGLLRKGTVLLADNVICPGAPDFLAHVRGSSCFECTHYQSFLEYREVVDGLEKAIYKGPGSEAGP
As for B7, under setting [1], the “Fold Change” value is on record as 0.567 and the “Log (Fold Change)” value is recorded as -0.2464.

B8: sp¦P61019¦RAB2A_HUMAN (protein, UniProt P61019 2-212, looked up)
Ras-related protein Rab-2A: AYAYLFKYIIIGDTGVGKSCLLLQFTDKRFQPVHDLTIGVEFGARMITIDGKQIKLQIWDTAGQESFRSITRSYYRGAAGALLVYDITRRDTFNHLTTWLEDARQHSNSNMVIMLIGNKSDLESRREVKKEEGEAFAREHGLIFMETSAKTASNVEEAFINTAKEIYEKIQEGVFDINNEANGIKIGPQHAATNATHAGNQGGQQAGGGCC
For B8, under setting [1], the “Fold Change” value is on record as 0.5636 and the “Log (Fold Change)” value is recorded as -0.249.

B9: sp¦Q53GQ0¦DHB12_HUMAN (protein, UniProt Q53GQ0 1-312, looked up)
Very-long-chain 3-oxoacyl-CoA …: MESALPAAGFLYWVGAGTVAYLALRISYSLFTALRVWGVGNEAGVGPGLGEWAVVTGSTDGIGKSYAEELAKHGMKVVLISRSKDKLDQVSSEIKEKFKVETRTIAVDFASEDIYDKIKTGLAGLEIGILVNNVGMSYEYPEYFLDVPDLDNVIKKMININILSVCKMTQLVLPGMVERSKGAILNISSGSGMLPVPLLTIYSATKTFVDFFSQCLHEEYRSKGVFVQSVLPYFVATKLAKIRKPTLDKPSPETFVKSAIKTVGLQSRTNGYLIHALMGSIISNLPSWIYLKIVMNMNKSTRAHYLKKTKKN
On to B9, for which, under setting [1], the “Fold Change” value amounted to 0.5753 and the “Log (Fold Change)” value was -0.2401.

B10: sp¦P51148¦RAB5C_HUMAN (protein, UniProt P51148 1-216, looked up)
Ras-related protein Rab-5C: MAGRGGAARPNGPAAGNKICQFKLVLLGESAVGKSSLVLRFVKGQFHEYQESTIGAAFLTQTVCLDDTTVKFEIWDTAGQERYHSLAPMYYRGAQAAIVVYDITNTDTFARAKNWVKELQRQASPNIVIALAGNKADLASKRAVEFQEAQAYADDNSLLFMETSAKTAMNVNEIFMAIAKKLPKNEPQNATGAPGRNRGVDLQENNPASRSQCCSN
For B10, under “KO vs WT HL60 cells”, the “Fold Change” value is listed as 0.5435 and the “Log (Fold Change)” value is given as -0.2648.

B11: sp¦Q96JJ7¦TMX3_HUMAN (protein, UniProt Q96JJ7 25-454, looked up)
Protein disulfide-isomerase …: KGFVEDLDESFKENRNDDIWLVDFYAPWCGHCKKLEPIWNEVGLEMKSIGSPVKVGKMDATSYSSIASEFGVRGYPTIKLLKGDLAYNYRGPRTKDDIIEFAHRVSGALIRPLPSQQMFEHMQKRHRVFFVYVGGESPLKEKYIDAASELIVYTYFFSASEEVVPEYVTLKEMPAVLVFKDETYFVYDEYEDGDLSSWINRERFQNYLAMDGFLLYELGDTGKLVALAVIDEKNTSVEHTRLKSIIQEVARDYRDLFHRDFQFGHMDGNDYINTLLMDELTVPTVVVLNTSNQQYFLLDRQIKNVEDMVQFINNILDGTVEAQGGDSILQRLKRIVFDAKSTIVSIFKSSPLMGCFLFGLPLGVISIMCYGIYTADTDGGYIEERYEVSKSENENQEQIEESKEQQEPSSGGSVVPTVQEPKDVLEKKKD
For the molecule B11, for the setting “akirin2 KO vs WT HL60 cells”, the “Fold Change” value was found to be 0.267 and the “Log (Fold Change)” value is given as -0.5736.

B12: sp¦Q9Y3A6¦TMED5_HUMAN (protein, UniProt Q9Y3A6 28-229, looked up)
Transmembrane emp24 …: FTPSLDSDFTFTLPAGQKECFYQPMPLKASLEIEYQVLDGAGLDIDFHLASPEGKTLVFEQRKSDGVHTVETEVGDYMFCFDNTFSTISEKVIFFELILDNMGEQAQEQEDWKKYITGTDILDMKLEDILESINSIKSRLSKSGHIQTLLRAFEARDRNIQESNFDRVNFWSMVNLVVMVVVSAIQVYMLKSLFEDKRKSRT
B12: under “akirin2 KO vs WT HL60 cells”, the “Fold Change” value turned out to be 0.2554 and the “Log (Fold Change)” value is -0.5928.

B13: sp¦Q15645¦PCH2_HUMAN (protein, UniProt Q15645 1-432, looked up)
Pachytene checkpoint protein …: MDEAVGDLKQALPCVAESPTVHVEVHQRGSSTAKKEDINLSVRKLLNRHNIVFGDYTWTEFDEPFLTRNVQSVSIIDTELKVKDSQPIDLSACTVALHIFQLNEDGPSSENLEEETENIIAANHWVLPAAEFHGLWDSLVYDVEVKSHLLDYVMTTLLFSDKNVNSNLITWNRVVLLHGPPGTGKTSLCKALAQKLTIRLSSRYRYGQLIEINSHSLFSKWFSESGKLVTKMFQKIQDLIDDKDALVFVLIDEVESLTAARNACRAGTEPSDAIRVVNAVLTQIDQIKRHSNVVILTTSNITEKIDVAFVDRADIKQYIGPPSAAAIFKIYLSCLEELMKCQIIYPRQQLLTLRELEMIGFIENNVSKLSLLLNDISRKSEGLSGRVLRKLPFLAHALYVQAPTVTIEGFLQALSLAVDKQFEERKKLAAYI
Take B13: under setting [1], the “Fold Change” value came out at 0.5524 and the “Log (Fold Change)” value is on record as -0.2577.

Values taken from publication PMC8298264, “Function of cofactor Akirin2 in the regulation of gene expression in model human neutrophil-like HL60 cells” (Bioscience Reports, 2021).
